B1: Flagellar motor switch protein FliM (Escherichia coli (strain K12)), P06974 (parent)
chain: MGDSILSQAEIDALLNGDSEVKDEPTASVSGESDIRPYDPNTQRRVVRERLQALEIINERFARHFRMGLFNLLRRSPDITVGAIRIQPYHEFARNLPVPTNLNLIHLKPLRGTGLVVFSPSLVFIAVDNLFGGDGRFPTKVEGREFTHTEQRVINRMLKLALEGYSDAWKAINPLEVEYVRSEMQVKFTNITTSPNDIVVNTPFHVEIGNLTGEFNICLPFSMIEPLRELLVNPPLENSRNEDQNWRDNLVRQVQHSQLELVANFADISLRLSQILKLNPGDVLPIEKPDRIIAHVDGVPVLTSQYGTLNGQYALRIEHLINPILNSLNEEQPK
partner: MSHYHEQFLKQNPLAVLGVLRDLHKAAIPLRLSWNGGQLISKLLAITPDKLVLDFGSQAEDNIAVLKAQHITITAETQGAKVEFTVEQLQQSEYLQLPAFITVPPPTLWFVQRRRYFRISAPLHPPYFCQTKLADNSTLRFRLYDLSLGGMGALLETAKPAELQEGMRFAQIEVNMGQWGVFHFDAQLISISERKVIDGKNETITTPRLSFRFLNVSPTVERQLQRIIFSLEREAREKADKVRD
B2: Flagellar brake protein YcgR (Escherichia coli (strain K12)), P76010 (parent)
chain: B1 partner
partner: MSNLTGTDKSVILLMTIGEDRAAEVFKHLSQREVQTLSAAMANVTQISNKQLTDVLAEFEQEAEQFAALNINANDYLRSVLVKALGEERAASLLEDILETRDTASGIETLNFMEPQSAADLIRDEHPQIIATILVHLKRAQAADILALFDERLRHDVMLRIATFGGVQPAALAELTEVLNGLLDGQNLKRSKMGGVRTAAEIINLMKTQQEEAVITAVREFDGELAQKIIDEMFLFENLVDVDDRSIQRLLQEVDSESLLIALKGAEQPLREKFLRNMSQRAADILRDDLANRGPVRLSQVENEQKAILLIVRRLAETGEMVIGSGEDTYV
B3: Flagellar motor switch protein FliG (Escherichia coli (strain K12)), P0ABZ1 (parent)
chain: B2 partner
partner: B1 partner
B4: Flagellar brake protein YcgR (Escherichia coli (strain K12)), P76010 (parent)
chain: B1 partner
partner: B1 chain

Variants of: B1
Conditions: with ycgr_ecoli ycgR

effect of a mutation on the interaction	Variant
disrupting interaction	R156E
decreasing interaction	E176R
decreasing interaction	V153D
decreasing interaction	D167R
decreasing interaction	N155E
disrupting interaction	L160E

Variants of: B2
Conditions: with flig_ecoli fliG

effect of a mutation on the interaction	Variant
decreasing interaction	K81D
decreasing interaction	N62W

Variants of: B3
Conditions: with ycgr_ecoli ycgR

effect of a mutation on the interaction	Variant
decreasing interaction	P295W
decreasing interaction	N292W
decreasing interaction	Q252W

Variants of: B4
Conditions: with flim_ecoli fliM

effect of a mutation on the interaction	Variant
disrupting interaction	I227W
disrupting interaction	Q223P
